The values below come from patent US20250381223A1 (UTC THERAPEUTICS SHANGHAI, published 2025).

Values joined by “and” are separate entries in the source; they are usually repeats but may differ in a detail not shown here. Equal entries are not always repeated.

The EC50 is the midpoint of the concentration-response curve. One may read the Kd as the equilibrium constant for the complex coming apart. A lower Kd goes with higher affinity. As a reminder, the kon is a measure of how fast the partners come together. Read a high kon as faster complex formation. Usually koff stands for the first-order rate constant of dissociation. High values mean a short-lived complex, low ones a long-lived complex.

Experiment [1] has as its target T1, recombinant human CD40-His antigen protein (human, UniProt P25942 21-193).
T1 construct: Bought protein; also called recombinant CD40-His protein; CD40 antigen; not shown: His tag
Nature of the experiment: ELISA; plate coated with CD40-His 2 µg/mL; IgG1, anti-human IgG-Fc (HRP). As to the method: Therefore, the affinity of the CD40 antibody (in the form of a human classical monoclonal antibody IgG1) was detected by in vitro binding ELISA. The brief experimental procedures were as follows: [0569] (1) Construction of antibody expression plasmid: an antibody VH region was subcloned into a pEF vector containing a human CH1-Fc antibody fragment, and an antibody VL region was subcloned into a pEF vector containing a human CL antibody fragment. [0570] (2) Antibody expression: 33 μg of an antibody heavy chain expression plasmid and 67 μg of an antibody light chain expression plasmid were co-transfected into 293F suspension cells by PEI. After 4 days of culture, the supernatant was collected by centrifugation. [0571] (3) Antibody purification: the protein supernatant and protein A purification medium were incubated on ice for 2 h, and then the supernatant and the purification medium were separated by a gravity column. The purification medium was rinsed thoroughly with 100 mL of pre-cooled PBS to remove impure proteins, and finally, the target protein was eluted from the purification medium with 5-10 mL of 0.1 M Glycine-HCl (pH 2.7), and 1/10 volume of 1 M Tris-HCl (pH 9.0) was immediately added to neutralize the antibody. […] After the protein concentration was measured with A280, the antibody was packaged and cryopreserved at −80° C. […]

Experiment [2] addresses T2, CD40-Fc ( for this staining reagent …, UniProt P25942).
T2 construct: soluble Fc fusion; Staining reagent, detected with PE-anti-Fc
Nature of the experiment: flow cytometry, lentivirus-transduced T cells, CD40-Fc + PE-anti-Fc. As to the method:
(§1) The transduction efficiency of the CAR-T cells was detected as follows: […] CAR-T cells were plated into each well of a 96-well plate, and the plate was washed once with PBS. 50 μL of Meso-Fc or CD40-Fc protein at a final concentration of 2 μg/mL was added to each well, and the mixture was incubated for 30 min at 4° C. The cells were washed 3 times with PBS, and 50 μL of PE-anti-Fc antibody at a final concentration of 1 μg/mL was added to each well. The mixture was incubated at 4° C. for 30 min. After being washed twice with PBS, the cells were detected by a flow cytometer.

Experiment [3] deals with T3, mesothelin-Fc recombinant protein (human, UniProt Q13421 296-580, limits assumed).
T3 construct: construct not described; also called Meso-Fc; not shown: Fc part
Nature of the experiment: flow cytometry, T cells with CAR mRNA, mesothelin-Fc + PE-anti-IgG-Fc; Control 0.63. The method, then: Mesothelin CAR mRNA obtained in Example 26 above was introduced into A549 tumor cells and T cells by electroporation, and the procedures are as follows: A549 tumor cells and T cells were collected and washed 3 times with the Opti-MEM medium. The cell pellet was resuspended in the Opti-MEM medium and the cell concentration was adjusted to 1×10e7 cells/mL. 10 μg of RNA was aliquoted into 1.5-mL EP tubes, 100 μL of T cells or A549 cells were added, followed by mixing well. 100 μL of cells mixed with RNA were added to the BTX electroporation cuvette and slight tapping was performed to avoid air bubbles. Electroporation was performed using a BTX instrument under the following parameters: for T cells: 500 V voltage, 0.7 ms; for A549 tumor cells: 300 V voltage, 0.5 ms. The cells were then transferred to a pre-warmed medium and cultured at 37° C. The binding of mesothelin CART cells to the mesothelin-Fc recombinant protein was determined by FACS staining. […] T cells without CAR molecules served as the control (“Mock”).

Experiment [4] deals with T4, CD40-Fc (human, UniProt P25942).
T4 construct: part fused to Fc; staining reagent of the flow cytometry; also called recombinant human CD40-Fc antigen protein
Nature of the experiment: flow cytometry of T cells electroporated with 2 µg M12 CAR mRNA alone; CD40-Fc + PE-anti-Fc. Background: Flow cytometry measures light scatter and fluorescence of single cells or particles in a stream.

Experiment [5] addresses T1, recombinant human CD40-His antigen …. Nature of the experiment: ELISA; plate coated with CD40-His 2 µg/mL; HRP-anti-hFc. The method, then:
The binding activities of the affinity-matured antibodies for antigen CD40 were detected by ELISA. The experimental procedures were as follows: [0637] 1. 50 μL of recombinant CD40-His protein at a concentration of 2 μg/mL was added to each well of an ELISA plate, and the plate was incubated at 4° C. overnight. […] 2. The next day, the ELISA plate was washed 3 times with PBST (containing 0.05% Tween-20). [0639] 3. 250 μL of 5% skim milk powder (dissolved in PBS) was added to each well of the ELISA plate, and the plate was incubated at room temperature for 2 h. [0640] 4. The plate was washed 3 times with PBST, antibodies with different dilution ratios were added to the ELISA plate at 50 μL/well, and the plate was incubated at room temperature for 60 min. [0641] 5. The plate was washed 3 times with PBST, 50 μL of HRP-anti-hFc antibody was added to each well, and the plate was incubated at room temperature for 60 min. [0642] 6. The plate was washed 3 times with PBST, 50 μL of TMB was added to each well, and after color development at room temperature, 50 μL of 2 M HCl was added to each well to stop the reaction. The plate was read at 450 nm.

Experiment [6] addresses T5, CD40 (analyte of the SPR assay) (UniProt P25942 21-193).
T5 construct: Injected at 3.125-100 nM over captured antibody; also called CD40 antigen
Description: SPR (Biacore 2000); antibody captured on protein A chip, CD40 3.125-100 nM; heterogeneous ligand model, KD1. The method, then:
(§2) The experimental procedures were as follows: The binding affinities between the antibodies and the CD40 antigen were detected by SPR technique using Biacore 2000 (Cytiva, Sweden). All experiments were performed at 25° C. […] CD40 diluted in a 2-fold gradient (3.125-100 nM) was injected into the mobile phase. The association time was set at 90 s and the dissociation time at 300 s. The chip surface was regenerated by incubation with 10 mM Glycine-HCl (pH 1.5) for 30 s to remove the bound CD40 and antibody. The affinity of the antibody was simulated using a biphasic ligand model (heterogenerous ligand mode) in the build-in Biacore Evaluation software of the machine.
Background: In SPR one partner is held on a chip, and binding of the other changes the refractive index at the surface.

Experiment [7] deals with T5, CD40 (analyte of the SPR assay). Nature of the experiment: SPR (Biacore 2000); antibody captured on protein A chip, CD40 3.125-100 nM; heterogeneous ligand model, KD2. The method, then:
as §2

Experiment [8] has the same target. Nature of the experiment: SPR (Biacore 2000); antibody captured on protein A chip, CD40 3.125-100 nM; heterogeneous ligand model, ka1. As to the method: as §2
For experiment [9] the target is unchanged. Nature of the experiment: SPR (Biacore 2000); antibody captured on protein A chip, CD40 3.125-100 nM; heterogeneous ligand model, ka2. The method, then:
(§3) The affinity kinetics of the affinity-matured antibodies were detected using surface plasmon resonance (SPR) technique.
as §2

Experiment [10] shares this target. Description: SPR (Biacore 2000); antibody captured on protein A chip, CD40 3.125-100 nM; heterogeneous ligand model, kd1. The method, then:
as §3, §2

For experiment [11] the target is unchanged. Nature of the experiment: SPR (Biacore 2000); antibody captured on protein A chip, CD40 3.125-100 nM; heterogeneous ligand model, kd2. As to the method: as §2
In experiment [12] the target is T2, CD40-Fc. Nature of the experiment: flow cytometry, lentivirus-transduced T cells, CD40-Fc 2 µg/mL + PE-anti-Fc; UTD 0.66, M12 1.16. As to the method:
as §1

T3 sequence (Q13421 other isoform, or with tags, fused parts or gaps limits assumed): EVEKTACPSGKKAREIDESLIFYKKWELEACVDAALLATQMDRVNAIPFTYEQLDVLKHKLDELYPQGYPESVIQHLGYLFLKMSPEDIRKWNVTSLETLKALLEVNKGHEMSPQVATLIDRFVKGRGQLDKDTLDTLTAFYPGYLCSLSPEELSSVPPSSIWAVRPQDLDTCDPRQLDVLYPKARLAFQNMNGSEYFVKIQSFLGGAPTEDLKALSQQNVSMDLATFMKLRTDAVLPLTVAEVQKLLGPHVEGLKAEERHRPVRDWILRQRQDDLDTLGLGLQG

B1: F2.103 (antibody, V domains shown)
VH: EVQLVESGGGLVQPGGSLRLSCAVSGFTFSTYWMHWVRQAPGKGLVWVSRINSDGSSTTYADSVKGRFTISRDNAKNTLYLQMNSLRAEDTAVYYCARDRVLWIGELSYYGMDVWGQGTTVTVSS
VL: DIQMTQSPSTLSASVGDRVTITCRASQSISNWLAWYQQKPGKAPKLLLYKASGLESGVPSRFSGSGSGTEFTLTINSLQPDDFATYYCQQSNSYSWTFGHGTKVEIKR
As for B1, the EC50 in experiment [1] is 0.0448 µg/mL and 305 nM.

B2: anti-mesothelin scFv-M12 (scFv)
scFv: AIRLTQSPSLLSASVGDRVTVTCRASQGGGNYLAWYQQKPGKAPKLLIYGASKLQSGVPSRFSGSGSGTEFTLTISSLQPEDFATYYCQQLNSYPVTFGQGTKVDIKGGGGSGGGGSGGGGSEVQLVESGAEVKKPGASVKVSCKASGYTFTTYYIHWVRQAPGQGLEWMGIINPSSGSTTYTQKFQGRVTMTRDTSTSTVYIELSGLRSEDTAVYYCARGETLRGYFDYWGQGTLVTVSS
notes: On mRNA-electroporated T cells as CAR; also called Meso-CAR (M12)
B2: the binding result in the experiment with CD40-Fc [2] is given as “no binding (tested: 2 µg/mL)”; with CD40-Fc [4], “no binding”. The “percent of cells in the gate” value in [3] worked out at 86.5%.

B3: 40.52 (antibody, V domains shown)
VH: QVQLVQSGAEVKKPGSSVKVSCKASGGTFSSYAISWVRQAPGQGLEWMGMINPSGGTTSYAQKFQGRVTMTRDTSTSTVYMELSSLRPEDTAVYYCARGFRMDQWGQGTLVTVSS
VL: QSALTQPPSASGSPGQSVTISCTGTSSDVGAYNFVSWYQQHPGNAPKLIIYDVRKRPSGIPDRFSASKSGNTASLTVSGLQADDEADYYCSSYAGNNNLVFGGGTKLTVL
notes: Tested as human IgG1 (VH on human CH1-Fc, VL on human CL)
For B3, the EC50 in [5] was 0.0975 µg/mL; in experiment [1] it was 0.0492 µg/mL and 344 nM. In addition, the Kd in experiment [6] is 0.864 nM; in experiment [7], 103 nM. Also, the figures for the kon in experiment [8] and in experiment [9] were 1.34e+06 M⁻¹ s⁻¹ and 861000 M⁻¹ s⁻¹, respectively. Besides, the off-rate (koff) in [10] stood at 0.00115 s⁻¹; in [11], 0.0885 s⁻¹.

B4: 4052.17 (antibody, V domains shown)
VH: QVQLVQSGAEVKKPGSSVKVSCKASGGTFSSYAISWVRQAPGQGLEWMGMINPSGGTTSYAQKFQGRVTMTRDTSTSTVYMELSSLRPEDTAVYYCARGFRMDQWGQGTLVTVSS
VL: QSALTQPPSASGSPGQSVTISCTGTSSDVGAYNFVSWYQQHPGNAPKLIIYDVRKRPSGIPDRFSASKSGNTASLTVSGLQADDEADYYCSSYAGNNEMVFGGGTKLTVL
B4: in [5], the EC50 stood at 0.0944 µg/mL. Further, the results for the Kd in experiment [6] and in [7] were 0.686 nM and 48.4 nM, respectively. The kon in [8] is 1.49e+06 M⁻¹ s⁻¹; in experiment [9], 748000 M⁻¹ s⁻¹. In addition, the koff in experiment [10] was determined as 0.00102 s⁻¹; in [11] it was 0.0362 s⁻¹.

B5: A40C2828 (other)
membrane fusion protein with an anti-CD40 antibody part: QVQLVQSGAEVKKPGASVKVSCTASGFNIKDYYVHWVKQAPGQGLEWMGRIDPEDGDSKYAPKFQGKATMTADTSTSTVYMELSSLRSEDTAVYYCTTSYYVGTYGYWGQGTLVTVSSGGGGSGGGGSGGGGSDIQMTQSPSSLSASVGDRVTITCSASSSVSYMLWFQQKPGKAPKLLIYSTSNLASGVPSRFSGSGSGTDFTLTISSLQPEDFATYYCQQRTFYPYTFGGGTKVEIKRTASIEVMYPPPYLDNEKSNGTIIHVKGKHLCPSPLFPGPSKPFWVLVVVGGVLACYSLLVTVAFIIFWVRSKRSRLLHSDYMNMTPRRPGPTRKHYQPYAPPRDFAAYRS
notes: also called new A40C28; New A40C28
B5: the “percent of cells in the gate” value with CD40-Fc [12] amounted to 39.8%.
